B1: RTP4 (parent)
chain: TYWEHWTSQGQVRMRLFGQRCQKC
B2: KCNK9 (parent)
chain: CFITLTTIGFGDYVALQTKGALQK

Variants of: B1
Assay: protein stability index of a GFP-peptide fusion (GPS, HEK-293T) (PSI 1-6); higher = more stable
Conditions: c terminus: a fixed tail appended
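Also: lentivirally expressed fusions sorted by FACS into six bins by GFP to DsRed ratio, PSI derived from sequencing read proportions per bin multiplied by bin number.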

Protein stability index, by site and new letter:
C21: T 1.78; Q 2.12; A 1.94; D 2.75; K 2.45; F 1.39; P 3.25; G 2.46; Y 1.81; R 2.4; E 2.46; L 2.4; H 2.23; I 1.98; M 1.7; N 2.15
K23: P 1.65; S 1.48; H 1.1; A 2.52; C 1.63; R 1.4; G 1.15; E 1.79; T 1.07; Q 1.92; D 1.79; Y 1.67
C24: F 2.78; G 2.2; V 2.03; W 1.54; K 3.24; Y 2.15; T 2.41; R 2.29; D 2.53; Q 2.28; H 2.07; M 2.29; E 2.34; P 1.69; N 2.22; L 2.2; A 2.31
Q22: V 1.36; A 2.06; N 1.71; W 4.47; S 1.33; L 2.36; K 1.61; E 1.09; T 1.94; P 1.68; H 1.69; I 1.52; R 1.92
R20: C 2.72; L 1.75; E 1.57; S 1.65; D 2.47; G 1.93; Q 1.24; H 1.63; P 1.78; Y 1.97; K 1.86; M 2.69; I 1.03; T 2.22; W 2.49; F 1.82; N 1.34

Variants of: B2
Assay: as above
Conditions: c terminus: a fixed tail appended

Protein stability index of substitutions, site by site:
F10: M 2.62; P 2.78; L 2.73; V 2.06; W 2.33; Q 1.56; C 2.79; G 2.16; K 1.85; N 1.58; R 1.7; A 2.05; E 2.46; S 1.39; Y 2.12; H 2.73; T 2.59; D 2.17
L5: K 1.59; C 3.26; G 2.48; V 2.34; T 1.57; S 1.6; Y 3.03; R 2.24; A 1.85; N 2.12; I 3.75; H 1.77; P 2.17; M 2.65; D 2.42; E 2.38; F 3.73; Q 2.07; W 2.72
Y13: N 2.04; P 2.92; H 2.07; E 2.12; M 3.32; W 2.93; C 3.93; G 2.42; Q 2.05; S 2.51; V 2.57; D 2.1; A 3.35; T 3.55; R 2.32; K 2.24; I 2.31; L 2.38
D12: A 3.21; E 2.69; C 3.65; N 2.71; R 2.62; I 3.71; H 3.68; Q 2.05; M 4.64; V 2.96; T 2.49; F 2.49; W 2.12; K 2.82; P 2.67; Y 3.4; G 3.42
I8: M 2.03; R 1.67; C 2.37; P 2.39; A 2.08; E 2.39; S 2.95; V 3.42; Y 1.78; Q 3.37; L 3.63; T 3.29; H 3.24; K 1.53; F 2.8; G 2.78; N 2.27; D 2.14
T7: R 2.44; H 2.63; A 4.42; P 2.32; S 2.53; W 4.77; N 1.78; D 2.15; K 1.73; E 2.94; M 2.54; V 2.77; L 3.38; Q 2.52; Y 2.13; F 3.36; I 3.49
V14: L 3.31; I 2.86; A 3.25; W 2.71; D 2.74; P 2.82; Y 3.12; K 1.82; H 2.99; N 1.86; S 2.06; G 2.69; M 2.02; F 3.46; T 2.64; Q 3.43; E 2.12; R 2.7
G9: T 2.21; S 1.73; L 3.46; K 2.5; E 1.58; W 2.9; D 2.33; H 2.51; Y 1.93; N 2.02; M 2.8; A 3.95; R 1.36; Q 2.81; F 3.77; C 2.83; I 2.7; V 4.79; P 1.99
G11: N 2.99; C 3.41; T 1.62; M 1.85; V 2.31; F 3.25; S 2.18; L 3.22; D 3.33; I 2.91; P 1.99; E 3.16; Y 3.95; K 2.73; Q 2.7; R 3.04; A 3.32; H 3.08
A15: L 2.64; K 2.38; D 3.31; H 3.04; N 2.76; M 3.04; C 3.23; E 2.93; G 2.48; F 2.37; I 3.38
T4: R 2.99; H 2.23; I 1.52; K 3.64; S 3.03; V 2.25; G 2.63; Q 1.99; D 2.54; M 3.53; N 3.41; E 2.07; A 2.99; W 2.91; P 2.13; C 3.91; F 2.95
F2: K 2.4; L 3.17; T 2.04; D 1.99; V 2.51; M 1.43; E 1.02; R 2.18; N 1.61; G 2.02; P 2.5; A 1.82; S 2.72; H 2.03; I 2.62; Q 1.82; Y 1.79; C 2.23
C1: S 2.4; W 3.09; G 1.26; D 1.57; L 4.01; M 3.33; T 3.37; A 2.27; N 2.2; P 1.66; H 3.02; K 2.05; E 2.02; Q 2.53; I 3.52; R 2.57
T6: Y 2.71; G 1.69; D 2.36; E 1.83; L 3.01; M 4.77; H 1.44; K 2.11; S 3.54; P 1.21; F 2.57; I 2.13; Q 1.51; C 3.41; V 3.1; N 2.89; R 2.85
I3: R 1.78; Q 2.13; P 2.68; K 2.06; W 2.2; F 1.52; S 2.11; L 2.05; M 2.05; G 1.68; H 1.82; Y 2.82; E 2.03; N 1.86; D 2.82; A 2.03; T 1.87; C 2.68
